Molecular target: CsrA (Escherichia coli (K-12 MG1655?)) (UniProt P69913)
Assay: EMSA
Conditions: binding buffer, pH and temperature not given

Chain of CsrA (Escherichia coli (K-12 MG1655?)) (P69913 whole entry): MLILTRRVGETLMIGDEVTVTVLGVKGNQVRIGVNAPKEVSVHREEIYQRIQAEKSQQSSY

Sequence	binding	K half [nM]
GGGAGGUUUGCUUUUAGGUUAGCGACCGAAAAUAUAAAUGAUAAUCAUUAUUAAAGCCUUUAUCAUUUUGUGGAGGAUGAUAUGGAUACGUCACUGGCUGAGGAAGUACAGCAGACCAUGGCAACACUUGCGCCCAAUCGCUUUUUCUUUAUGUCGCCGUACCGCAGUUUUACGACGUCAG [entC leader]	binds	
GGGAGAACGGUUAACUUAACGGAUGUUUCGCGGUGUGGGUGAGCAUGAUGGUUCACCGGCAUCUCAAUUCUCAUUUAAACGUACCUGCAGCGAAUGAAUACUGAAGCCACGCACGACCAAAAUGAAGCACUUACUACCGGCGCUCGCCUGCGUAAUGCUCGCGAACAACUAGGACUUAGUCAGCAGGCCGUUG [rodZ leader]	binds	
GGGAGAUUUGUGUUUAUCCCGAUUUUCGCGAUCGCAGCCGGAGUGGCGCAAUCCCUGCAAUACUUAAAUCGGUAUCAUGUGAUACGCGAGCCUCCGGAGCAUAUUUUGAACAGGUUACCUUCGAGCGCAUCGGCUUUAGCGUGCAGCGCCCACGCCCUGAAUCUCAUUGAGAAGCGAACGCUGGAUCAUGAGGAGAUGAAAGCAC [patA leader]	binds	
GGGAUAAUGCGCUUUCUUUAGCCGUUAAUAUCCACCGGCAUGGCUGCGCGCCGUGCCGGUUCCUUCUUGCUUGGCGUCACUCUUUGAAGACGCAUUCUGCAGUUUACGAUGACUACUAUUGUUGACAGCAAUCUGCCGGUUGCCCGCCCGUCAUGGGAUCAUUCUCGUCUGGAAUCACGCAUUGUGCAUCUCGGUUGCGGGGCGUUUCGCAUGC [uxuB 5' UTR mutant (UPSTR mut)]		144
GGGAGGUAAUUUUGGUUUUCCCGGCCAAAAAUGGACAAUAACCACCAGGAAAAGGAGACGGAAUGCAUCACGCCACCCCGCUUAUCACCACCAUUGUUGGCGGCCUUGUGCUCGCCUUUAUCCUCGGCAUGCUGGCCAAUAAACUACGUAUUUCUCCUCUGG [ybaL leader]	binds	

Reference: doi:10.1101/2024.09.28.615595
